Square brackets hold non-standard residues; d marks the D form. Ends that are not written are not given here.
Columns and labels:
GLP-1 receptor, P32301 = biological target: T1, GLP-1 receptor, P32301; experiment: GLP-1 receptor binding, displacement of [125I]GLP-1 on RINm5F cell membranes
T1 chain: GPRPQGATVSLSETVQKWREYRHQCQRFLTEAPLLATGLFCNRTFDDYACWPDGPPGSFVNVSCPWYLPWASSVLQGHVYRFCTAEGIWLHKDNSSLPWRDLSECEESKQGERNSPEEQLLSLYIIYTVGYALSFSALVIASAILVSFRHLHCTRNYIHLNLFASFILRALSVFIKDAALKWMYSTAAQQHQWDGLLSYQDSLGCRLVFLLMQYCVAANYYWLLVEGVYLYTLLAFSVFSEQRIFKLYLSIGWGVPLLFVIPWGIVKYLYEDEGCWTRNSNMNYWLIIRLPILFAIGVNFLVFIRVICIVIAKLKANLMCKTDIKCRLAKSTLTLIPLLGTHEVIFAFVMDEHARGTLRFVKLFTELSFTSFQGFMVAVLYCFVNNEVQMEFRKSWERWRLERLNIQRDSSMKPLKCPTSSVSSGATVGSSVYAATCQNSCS

GIP receptor = biological target: T2, GIP receptor; experiment: GIP receptor binding assay
T2 sequence (P48546 whole entry, species assumed, looked up): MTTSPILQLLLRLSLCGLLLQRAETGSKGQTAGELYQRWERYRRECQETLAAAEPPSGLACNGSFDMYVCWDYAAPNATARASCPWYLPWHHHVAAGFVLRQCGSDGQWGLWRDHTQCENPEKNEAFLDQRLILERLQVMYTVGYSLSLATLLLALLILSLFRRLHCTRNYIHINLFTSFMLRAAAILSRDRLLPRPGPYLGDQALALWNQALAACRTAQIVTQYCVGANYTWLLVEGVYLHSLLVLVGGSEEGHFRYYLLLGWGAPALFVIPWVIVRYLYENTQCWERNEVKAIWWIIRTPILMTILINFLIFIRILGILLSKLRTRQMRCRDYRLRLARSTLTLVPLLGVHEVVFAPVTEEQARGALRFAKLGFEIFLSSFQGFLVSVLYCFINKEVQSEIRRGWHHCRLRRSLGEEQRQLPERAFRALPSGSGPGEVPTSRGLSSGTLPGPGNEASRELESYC

Binder | GLP RBA (GLP-1 receptor, P32301) | GIP RBA (GIP receptor) [nM]
YAEGTFISDYSIAMDKIHQQDFVNWLLAQKPSSGAPPPS (modifications not checked) [0601GIP3794, (D-Ala2)GIP(1-30)-… amide form] | 1000 | 
Y[dA]EGTFISDYSIAMDKIHQQDFVNWLLAQKPKKIRYS [0601GIP4233, [dAla2] GIP-(1-30)-fGLP-1v2-(31-37)] |  | 0.1
